Legend:
[1] = biological target: T1, IGF-1R on cells (A549 human lung adenocarcinoma cells; primary human ocular choroid fibroblasts, HOCF) (human, UniProt P08069 31-1367); experiment: cell-based or functional assay
[2] = biological target: T1, IGF-1R on cells (A549 human lung …); experiment: flow cytometry on A549 cells, binding dose response curve
Experimental: (§1) Cell binding: A549 human lung adenocarcinoma cells or primary human ocular choroid fibroblasts (HOCF) were incubated with varying concentrations of VRDN-5000 or teprotumumab. A single dose 50 nM IgG1 isotype control was used as negative control. Unbound antibody was removed by washing, and the cells were incubated with an Alexa Fluor 488-goat anti-human antibody and a cell impermeable dye to gate live cells. The median fluorescence intensity (MFI) of viable cells was measured by flow cytometry and the data were analyzed using FlowJo software. Dose curves were fitted using a non-linear regression model; log (agonist) vs response-variable slope (four parameters).
VRDN-5000 Binds With High Affinity To IGF-1R On A549 Cells. As illustrated in FIG. 3A-C, VRDN-5000 binding to A549 cells was assessed by flow cytometry and found to have similar binding distribution as teprotumumab at three different concentrations.

[3] = biological target: T1, IGF-1R on cells (A549 human lung …); experiment: flow cytometry on HOCF cells, binding dose response curve
Experimental: as §1
FIG. 5A-B illustrate VRDN-5000 binding to HOCF cells, which was assessed by flow cytometry and found to have largely similar binding as teprotumumab at three different concentrations.

T1 sequence (P08069 31-1367): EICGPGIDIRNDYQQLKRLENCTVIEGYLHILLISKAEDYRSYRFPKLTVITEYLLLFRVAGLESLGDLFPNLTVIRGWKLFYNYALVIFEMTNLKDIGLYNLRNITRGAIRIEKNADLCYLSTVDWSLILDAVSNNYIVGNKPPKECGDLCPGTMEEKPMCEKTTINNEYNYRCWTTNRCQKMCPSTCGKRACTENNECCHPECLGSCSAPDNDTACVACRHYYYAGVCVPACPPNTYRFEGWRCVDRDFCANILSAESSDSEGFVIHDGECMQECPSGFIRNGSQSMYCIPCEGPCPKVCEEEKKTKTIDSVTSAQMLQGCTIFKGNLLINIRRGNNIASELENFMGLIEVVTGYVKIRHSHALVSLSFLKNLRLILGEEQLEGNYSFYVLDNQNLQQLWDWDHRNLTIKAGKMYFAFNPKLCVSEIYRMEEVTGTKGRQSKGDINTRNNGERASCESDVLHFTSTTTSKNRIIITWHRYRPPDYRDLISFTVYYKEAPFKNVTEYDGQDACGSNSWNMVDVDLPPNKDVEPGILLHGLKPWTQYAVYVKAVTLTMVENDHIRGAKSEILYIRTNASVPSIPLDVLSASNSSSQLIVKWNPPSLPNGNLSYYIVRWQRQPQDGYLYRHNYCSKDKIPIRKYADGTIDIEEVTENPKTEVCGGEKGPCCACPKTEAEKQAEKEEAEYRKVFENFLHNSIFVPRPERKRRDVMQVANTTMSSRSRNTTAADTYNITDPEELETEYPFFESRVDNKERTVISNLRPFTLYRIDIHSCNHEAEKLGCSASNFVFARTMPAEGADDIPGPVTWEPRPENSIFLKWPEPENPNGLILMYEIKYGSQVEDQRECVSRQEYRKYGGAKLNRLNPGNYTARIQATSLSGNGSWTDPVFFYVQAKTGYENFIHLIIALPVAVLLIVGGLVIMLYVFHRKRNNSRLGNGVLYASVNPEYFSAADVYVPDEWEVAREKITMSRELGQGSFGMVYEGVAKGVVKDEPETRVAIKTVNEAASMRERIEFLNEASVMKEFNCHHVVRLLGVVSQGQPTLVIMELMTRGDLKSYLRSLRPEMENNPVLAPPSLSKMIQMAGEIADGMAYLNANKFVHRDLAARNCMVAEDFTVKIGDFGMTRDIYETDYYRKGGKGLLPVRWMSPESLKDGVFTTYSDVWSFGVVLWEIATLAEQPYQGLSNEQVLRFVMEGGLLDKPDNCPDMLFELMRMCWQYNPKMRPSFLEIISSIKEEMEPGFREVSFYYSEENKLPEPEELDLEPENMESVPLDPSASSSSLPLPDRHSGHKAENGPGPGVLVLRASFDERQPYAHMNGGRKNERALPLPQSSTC

- IC50 of IGF-1 stimulated receptor phosphorylation on A549 cells (pIGF-1R ELISA) [1]: 90 pM
- IC50 of IGF-1 stimulated receptor phosphorylation on HOCF cells (pIGF-1R ELISA) [1]: 90 pM
- EC50 [2]: 0.1 nM
- EC50 [3]: 0.4 nM
B1: VRDN-5000 (antibody, human IgG1, kappa)
heavy: not shown
light: DVVMTQTPLSLPVSLGDPASISCRSSQSIVHSNVNTYLEWYLQKPGQSPRLLIYKVSNRFSGVPDRFSGSGAGTDFTLRISRVEAEDLGIYYCFQGSHVPPTFGGGTKLEIKRTVAAPSVFIFPPSDEQLKSGTASVVCLLNNFYPREAKVQWKVDNALQSGNSQESVTEQDSKDSTYSLSSTLTLSKADYEKHKVYACEVTHQGLSSPVTKSFNRGEC
notes: neither was used; also called VRDN-001
